Positions count from the first letter of the chain named.

The target in series [1] is thrombin (Homo sapiens, UniProt P00734). The experiment in a line: Inhibition of thrombin-catalyzed conversion of fibrinogen to fibrin, absorbance at 350 nm. In kind it is biochemical. The settings on record: for IC50: thrombin concentration of 0.1 nM, fibrinogen 2 μM. Here is the method: Thrombin (0.1 nM) and fibrinogen (2 μM) were incubated with TBCA and Lib of different concentrations separately in buffer systems (total reaction volume of 100 μL) for a certain amount of time (till reaction equilibrium was reached), and the IC50 values of TBCA and Lib were calculated by fitting of the absorbance of the reaction system measured at 350 nm on a microplate reader.
The inhibition of thrombin-catalyzed conversion of fibrinogen to fibrin by TBCA and the random circular nucleic acid (Lib) was compared.
Thrombin (0.1 nM) and fibrinogen (2 μM) were incubated with TBCA, M1, M2, M3, M4, M5, D1, D2 and D3 of different concentrations separately in buffer systems (total reaction volume of 100 μL) for a certain amount of time (till reaction equilibrium was reached), and the IC50 values of TBCA, M1, M2, M3, M4, M5, D1, D2 and D3 were calculated by fitting of the absorbance of the reaction system measured at 350 nm on a microplate reader.

Series [2] in a line: Incubation in 50% serum at 37° C., electrophoresis, gray values of bands (biostability, half-life). In kind it is in vitro ADME. The settings on record: 0.5 μM. The procedure:
Incubation of 0.5 μM of TBCA and TBA each (nucleotide sequences thereof are shown in SEQ ID NO:1 and SEQ ID NO:2, respectively) was performed in 50% serum at a temperature of 37° C. Samples were taken for electrophoresis at 0 min, 1 min, 2 min, 5 min, 10 min, 30 min, 60 min (1 h), 120 min (2 h), 240 min (4 h), 480 min (8 h), 720 min (12 h) and 1440 min (24 h), respectively.

What is called IC50 is the concentration that inhibits the measured activity by half. The low end stands for greater potency, the high end for weaker potency. In turn, “D3: Deletion variant of TBCA, SEQ ID NO:10 (DNA ATCTCGACTAGTCATAGGGGGCGCGAACATACGCGGTTGGTGTGGTTGGCTGACAA; DNA, backbone and methylation of C not given here; further chemistry not fully specified)” showed an IC50 in series [1] of 130 pM.
Take “TBA: Existing thrombin binding aptamer, 5′-GGTTGGTGTGGTTGG-3′, specifically targets α-thrombin [reference compound]”: in series [2], the half-life result is “approximately 2 min”. This molecule showed an IC50 in series [1] of 1300 pM.

B1: D1: Deletion variant of TBCA, SEQ ID NO:8 (nucleic acid)
DNA: ATCTCGACTAGTCATAGGGGGCGCGAACATACGCGGTTGGTGTGGTTGGCTGACAATACTCGTGTCTCGGAT
modifications: DNA, backbone and methylation of C not given here; further chemistry not fully specified
Molecule B1 came in with an IC50 in series [1] of 150 pM.

B2: TBCA: Circular DNA aptamer, SEQ ID NO:1, 5′ end and 3′ end connected to form a ring (nucleic acid)
DNA: ATCTCGACTAGTCATAGGGGGCGCGAACATACGCGGTTGGTGTGGTTGGCTGACAATACTCGTTTTTGGTGTCTCGGAT
modifications: DNA, backbone and methylation of C not given here; circular: 5' and 3' ends joined to form a ring
In the case of B2, the values for the half-life result in series [2] and in series [2] (listed as thrombin binding circular aptamer) were “about 8 hours” and “up to 8 hours”, respectively. Besides, the “inhibition effect on thrombin relative to Argatroban” value in series [1] (thrombin 0.1 nM, ratio of IC50 values, TBCA vs Argatroban) amounted to 30 times. Besides, in series [1] (thrombin 0.1 nM, ratio of IC50 values, TBCA vs TBA), the “inhibition effect on thrombin relative to TBA” value was 13 times. Half-maximal inhibition in series [1] (IC50) was put at 150 pM.

B3: M1: Substitution variant of TBCA, SEQ ID NO:3, N is a random nucleotide (nucleic acid)
DNA: B2 DNA with A1N, T2N, C3N, T4N, C5N, G6N, A7N
modifications: DNA, backbone, methylation of C and the base at N not given here; circular: 5' and 3' ends joined to form a ring
As to B3, the IC50 in series [1] is 370 pM.

B4: M5: Substitution variant of TBCA, SEQ ID NO:7, N is a random nucleotide (nucleic acid)
DNA: B2 DNA with G71N, T72N, C73N, T74N, C75N, G76N, G77N, A78N, T79N
modifications: DNA, backbone, methylation of C and the base at N not given here; circular: 5' and 3' ends joined to form a ring
In the case of B4, it took 110 pM to reach half-maximal inhibition in series [1] (IC50).

B5: M2: Substitution variant of TBCA, SEQ ID NO:4, N is a random nucleotide (nucleic acid)
DNA: B2 DNA with C8N, T9N, A10N, G11N, T12N, C13N, A14N
modifications: DNA, backbone, methylation of C and the base at N not given here; circular: 5' and 3' ends joined to form a ring
With B5, in series [1], half-maximal inhibition (IC50) required 360 pM.

B6: M3: Substitution variant of TBCA, SEQ ID NO:5, N is a random nucleotide (nucleic acid)
DNA: B2 DNA with T57N, A58N, C59N, T60N, C61N, G62N, T63N
modifications: DNA, backbone, methylation of C and the base at N not given here; circular: 5' and 3' ends joined to form a ring
In the case of B6, the midpoint of inhibition in series [1], the IC50, lay at 180 pM.

B7: M4: Substitution variant of TBCA, SEQ ID NO:6, N is a random nucleotide (nucleic acid)
DNA: B2 DNA with T64N, T65N, T66N, T67N, G68N, G69N, T70N
modifications: DNA, backbone, methylation of C and the base at N not given here; circular: 5' and 3' ends joined to form a ring
For B7, in series [1], the IC50 turned out to be 100 pM. This IC50 is about 1.8-fold lower than that of the molecule before.

B8: D2: Deletion variant of TBCA, SEQ ID NO:9 (nucleic acid)
DNA: ATCTCGACTAGTCATAGGGGGCGCGAACATACGCGGTTGGTGTGGTTGGCTGACAATACTCGT
modifications: DNA, backbone and methylation of C not given here; further chemistry not fully specified
With B8, the midpoint of inhibition in series [1], the IC50, lay at 90 pM.

These data come from patent US12365904B2, “Thrombin binding circular aptamer and use thereof” (Hefei University of Technology, priority 2019, dated 2025).
